T1: cyno CD40 on cyno spleen B cells (Macaca fascicularis (cynomolgus), UniProt P25942 21-277 (human entry))
T1 chain: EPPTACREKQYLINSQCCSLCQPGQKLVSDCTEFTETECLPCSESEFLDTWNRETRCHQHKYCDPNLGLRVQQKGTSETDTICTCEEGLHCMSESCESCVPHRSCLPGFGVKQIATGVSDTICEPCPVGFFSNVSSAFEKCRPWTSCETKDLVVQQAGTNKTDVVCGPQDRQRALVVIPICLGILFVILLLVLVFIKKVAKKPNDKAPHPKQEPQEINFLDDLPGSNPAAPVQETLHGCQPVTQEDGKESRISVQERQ

B1: Antibody D (antibody, human IgG1, kappa, L234A L235A, V domains shown)
VH: EVQLVESGGGLVKPGGSLRLSCAASGFTFSDYGMHWVRQAPGKGLEWVAYISSGNRIIYYADTVKGRFTISRDNAKNSLYLQMNSLRAEDTAVYYCARQDGYRYAMDYWGQGTLVTVSS
VL: DIVMTQSPDSLAVSLGEKVTINCKSSQSLLNSGNQKNYLTWHQQKPGQPPKLLIYWTSTRESGVPDRFSGSGSGTDFTLTISSLQAEDVAVYYCQNDYTYPLTFGGGTKVEIKR
notes: Benchmark; also called antibody B IgG1KOb (U.S. Pat. No. 8,591,900)
B2: Astellas/Kirin ASKP-1240 (antibody, human IgG4 S228P, kappa, V domains shown)
VH: QLQLQESGPGLLKPSETLSLTCTVSGGSISSPGYYGGWIRQPPGKGLEWIGSIYKSGSTYHNPSLKSRVTISVDTSKNQFSLKLSSVTAADTAVYYCTRPVVRYFGWFDPWGQGTLVTVSS
VL: AIQLTQSPSSLSASVGDRVTITCRASQGISSALAWYQQKPGKAPKLLIYDASNLESGVPSRFSGSGSGTDFTLTISSLQPEDFATYYCQQFNSYPTFGQGTKVEIKR
notes: Benchmark
B3: Novartis CFZ533 (antibody, human IgG1, kappa, N297A, V domains shown)
VH: QVQLVESGGGVVQPGRSLRLSCAASGFTFSSYGMHWVRQAPGKGLEWVAVISYEESNRYHADSVKGRFTISRDNSKITLYLQMNSLRTEDTAVYYCARDGGIAAPGPDYWGQGTLVTVSS
VL: DIVMTQSPLSLTVTPGEPASISCRSSQSLLYSNGYNYLDWYLQKPGQSPQVLISLGSNRASGVPDRFSGSGSGTDFTLKISRVEAEDVGVYYCMQARQTPFTFGPGTKVDIRR
notes: Benchmark
B4: C40B176 (antibody, human IgG1, lambda)
heavy: EVQLVESGGGLVQPGGSLRLSCAASGFTFSSYAMSWVRQAPGKGLEWVSTINAAGGGTYYADSVKGRFTISRDNSKNTLYLQMNSLRAEDTAVYYCAKEGGKYYYYALDVWGQGTTVTVSSASTKGPSVFPLAPSSKSTSGGTAALGCLVKDYFPEPVTVSWNSGALTSGVHTFPAVLQSSGLYSLSSVVTVPSSSLGTQTYICNVNHKPSNTKVDKKVEPKSCDKTHTCPPCPAPEAAGASSVFLFPPKPKDTLMISRTPEVTCVVVDVSAEDPEVKFNWYVDGVEVHNAKTKPREEQYNSTYRVVSVLTVLHQDWLNGKEYKCKVSNKALPSSIEKTISKAKGQPREPQVYTLPPSREEMTKNQVSLTCLVKGFYPSDIAVEWESNGQPENNYKTTPPVLDSDGSFFLYSKLTVDKSRWQQGNVFSCSVMHEALHNHYTQKSLSLSPGK
light: SYELTQPPSVSVSPGQTASITCSGDKLGDKYAAWYQQKPGQSPVLVIYQDSRRPSGIPERFSGSNSGNTATLTISGTQAMDEADYYCQAWASSTVVFGGGTKLTVLGQPKAAPSVTLFPPSSEELQANKATLVCLISDFYPGAVTVAWKADSSPVKAGVETTTPSKQSNNKYAASSYLSLTPEQWKSHRSYSCQVTHEGSTVEKTVAPTECS
notes: IgG1sigma

How the values were obtained:
[1] = target: T2, human CD40 on cells (human tonsillar B cells, human dendritic cells, HEK-Blue CD40L cells) (human, UniProt P25942 21-277); assay: cell-based or functional assay
[2] = target: T2, human CD40 on cells (human tonsillar B …); assay: cell-based or functional assay; remark: listed apart in the source
[3] = target: T3, human CD40 (analyte in SPR) (human, UniProt P25942 21-193); assay: affinity in benchmark table; method not restated (SPR ProteOn of Example 3 presumed)
T3 construct: also called huCD40

[4] = target: T1, cyno CD40 on cyno spleen B cells; assay: cell-based or functional assay
[5] = target: T3, human CD40 (analyte in SPR); assay: affinity in benchmark table; method not restated (SPR ProteOn of Example 3 presumed); Table 14 benchmark table, not Table 12
[6] = target: T3, human CD40 (analyte in SPR); assay: SPR, ProteOn XPR36, mAb captured on anti-human IgG Fc, CD40 as analyte, 25 C, 1:1 Langmuir
Description: Affinity of the antibodies to human CD40 was assessed using Surface Plasmon Resonance (SPR) using a ProteOn XPR36 system (BioRad). […] Approximately 5000 RU (response units) of mAbs were immobilized. The kinetic experiments were performed at 25° C. in running buffer (DPBS+0.01% P20+100 μg/ml BSA). To perform kinetic experiments, 200 RU of mAbs were captured followed by injections of analytes (human or cyno CD40) at 5 concentrations (in a 4-fold serial dilution). The association phase was monitored for 3 minutes at 50 μL/min, then followed by 15 minutes of buffer flow (dissociation phase). The chip surface was regenerated with two 18 second pulses of 100 mM H₃PO₄ (Sigma, Cat#7961) at 100 μL/min.
The collected data were processed using ProteOn Manager software. First, the data was corrected for background using inter-spots. Then, double reference subtraction of the data was performed by using the buffer injection for analyte injections. The kinetic analysis of the data was performed using a Langmuir 1:1 binding model. The results were reported in the format of Ka (On-rate), Kd (Off-rate) and KD (equilibrium dissociation constant).

[7] = target: T2, human CD40 on cells (human tonsillar B …); assay: cell-based or functional assay; remark: listed apart in the source
[8] = target: T1, cyno CD40 on cyno spleen B cells; assay: cell-based or functional assay
[9] = target: T2, human CD40 on cells (human tonsillar B …); assay: cell-based or functional assay; remark: listed apart in the source

| Binder | IC50, human DC IL-12p40 production, membrane CD40L [1] | IC50, human DC IL-12p40 production, soluble CD40L [1] | IC50, B cell proliferation, membrane CD40L, human B-cells [2] | IC50, B cell proliferation, soluble CD40L, human B-cells [2] | Kd [3] | IC50, B cell proliferation, soluble CD40L, cyno B-cells [4] | Kd [5] | Kd [6] | koff [6] | kon [6] | IC50, mCD40L-driven DC IL-12p40 production [7] | IC50, sCD40L-driven DC IL-12p40 production [7] | IC50, sCD40L-driven cyno B-cell proliferation [8] | IC50, mCD40L-driven human B-cell proliferation [9] | IC50, sCD40L-driven human B-cell proliferation [9] |
| --- | --- | --- | --- | --- | --- | --- | --- | --- | --- | --- | --- | --- | --- | --- | --- |
| B1 | 3.63 nM | 0.781 nM | 1.93 nM | 0.68 nM | 0.58 nM |  |  |  |  |  |  |  |  |  |  |
| B2 | 0.28 nM | 0.119 nM | 0.132 nM | 0.079 nM | 0.181 nM | 0.146 nM |  |  |  |  |  |  |  |  |  |
| B3 | 0.948 nM | 0.32 nM | 0.279 nM | 0.223 nM | 0.00936 nM |  |  |  |  |  |  |  |  |  |  |
| B4 |  |  |  |  |  |  | 0.0496 nM | 0.107 nM | 0.000307 s⁻¹ | 2.86e+06 M⁻¹ s⁻¹ | 0.245 nM | 0.22 nM | 0.108 nM | 0.181 nM | 0.132 nM |
